Biological target: Mouse cKIT on C57BL/6J bone marrow cells (mouse, UniProt P05532 25-979)
Assay: cell-based or functional assay

| Binder | EC50 (ng/ml), cell viability after 7 days, Mouse CD45+ cells [ng/mL] | EC50 (ng/ml), cell viability after 7 days, Mouse cKIT+ cells [ng/mL] | EC50 (ng/ml), cell viability after 7 days, Mouse total nucleated cells [ng/mL] |
| --- | --- | --- | --- |
| J5: Anti-cKIT Fab′5 conjugated to Compound (1), DAR 4 (Fab, V domains shown, Compound (1) on native cysteine LC-214C (EU); Compound (1) on native cysteines HC-220C-226C-229C (EU)) VH: QVQLVQSGAEVKKPGESLKISCKGSGYSFTNYWIAWVRQMPGKGLEWMGIIYPSNSYTLYSPSFQGQVTISADKSISTAYLQWSSLKASDTAMYYCARVPPGGSISYPAFDHWGQGTLVTVSS VL: DIELTQPPSVSVSPGQTASITCSGDNIGSIYASWYQQKPGQAPVLVIYRDNKRPSGIPERFSGSNSGNTATLTISGTQAEDEADYYCSVTDMEQHSVFGGGTKLTVLG | 210 | 120 | 210 |
| J4: Anti-cKIT Fab′4 conjugated to Compound (1), DAR 4 (Fab, V domains shown, Compound (1) on native cysteine LC-214C (EU); Compound (1) on native cysteines HC-220C-226C-229C (EU)) VH: QVQLQQSGPGLVKPSQTLSLTCAISGDSVSTNSAAWNWIRQSPSRGLEWLGRIYYRSQWLNDYAVSVKSRITINPDTSKNQFSLQLNSVTPEDTAVYYCARQLTYPYTVYHKALDVWGQGTLVTVSS VL: DIELTQPPSVSVSPGQTASITCSGDNLGDQYVSWYQQKPGQAPVLVIYDDTDRPSGIPERFSGSNSGNTATLTISGTQAEDEADYYCQSTDSKSVVFGGGTKLTVLG | 3800 | 8 | 3800 |

— patent US20190321483A1 (Novartis, published 2019)
